# Assay results published in patent US5348941A, “Stabilizers for fibroblast growth factors” (Merck & Co., Inc., priority 1992, dated 1994).
# What was measured:
# Assay type in all cases: biochemical
# [1] = biological target: T1, aFGF (Homo sapiens, UniProt P05230); assay: Thermal denaturation (Tm) of aFGF by fluorescence spectroscopy; conditions: no heparin, PBS pH 7.2
# T1 construct: The recombinant derived, 140 amino add form is the preferred form of aFGF; N-terminal methionine (MetHaFGF); made in house; host or cells: microbial cells (preferred embodiment)
# T1 sequence (P05230 16-155 limits assumed): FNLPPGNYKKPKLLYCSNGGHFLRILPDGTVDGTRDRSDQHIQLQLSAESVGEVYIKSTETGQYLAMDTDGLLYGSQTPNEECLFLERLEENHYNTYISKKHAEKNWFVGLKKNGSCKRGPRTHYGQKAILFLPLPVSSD
# Procedure: Fluorescence spectra are obtained with a Spex Fluorolog-2 spectrofiuorometer using a 1 mm pathlength cuvette. Band passes from 1-2 nm are employed with sample absorptivities maintained below 0.1 at 280 nm. The temperature is controlled either manually or automatically as described above. Reproducibility of thermal denaturation temperatures (Tm) is ± 2° C.
# To more directly ascertain the effect of heparin on aFGF stability, the temperature-induced denaturation of aFGF as a function of heparin concentration was monitored by fluorescence spectroscopy. Fluorescence spectra were obtained with a Spex Fluorolog-2 spectrofiuorometer using a 1 mm pathlength cuvette. Band passes from 1-2 nm were employed with sample absorptivities maintained below 0.1 at 280 nm. The temperature was controlled either manually or automatically as described above. Reproducibility of thermal denaturation temperatures (Tm) was ±2° C. […] Experiments were carried out at 100 μg/ml protein (6.3 μM) in a PBS buffer at pH 7.2. Curve drawn through data points for clarity only.
# Studies of the stabilization of aFGF by heparin are difficult to interpret because of the inherent heterogeneity of heparin preparations, Lane and Lindahl, Eds. Heparin, Chemical and Biological Properties, Clinical Applications, Edward Arnold, London (1989); Jackson, et al., Physiol. Rev. 71: 481-539 (1991). In order to better understand the polyanionic stabilization of aFGF, a series of well-defined fragments of heparin were examined for their ability to stabilize aFGF against thermal denaturation. These enzymatically prepared and purified fragments varied in size from a disaccharide to a decasaccharide. Each fragment was incubated with aFGF at a 1:1 weight ratio in a PBS buffer. The sample was then stressed by temperature and structural changes in aFGF were monitored by both circular dichroism and fluorescence spectroscopy. […] All samples contained 100 μg/ml aFGF (6.3 μM)in a PBS buffer (pH 7.2) with 100 μg/ml of each heparin fragment.
# Since these fragments of heparin have a well-defined molecular weight, the molar ratio of aFGF to ligand during these thermal denaturation experiments can be calculated. The Tm of aFGF as a function of the molar concentration of the hexasaccharide was measured by fluorescence spectroscopy. Fluorescence spectra were obtained with a Spex Fluorolog-2 spectrofiuorometer using a 1mm pathlength cuvette. Band passes from 1-2 nm were employed with sample absorptivities maintained below 0.1 at 280 nm. The temperature was controlled either manually or automatically as described above. Reproducibility of thermal denaturation temperatures (Tm) was ±2° C.
# Analogous to the heparin experiments illustrated in Example 1 (FIG. 3), aFGF thermal stability was monitored by fluorescence spectroscopy as a function of concentration for several other of the polyanions. […] All samples contained 100 μg/ml of aFGF (6.3 μM) in a PBS buffer at pH 7.2.
# [2] = biological target: T1, aFGF; assay: Copper-catalyzed oxidation of aFGF thiol groups
# Procedure: Copper-catalyzed oxidation of aFGF is carried out in the following manner. Acidic FGF (about 80 μg/ml) is incubated in a 20 mM Tris, 0.15M potassium chloride, pH 8 solution containing about 20 μM cuptic chloride for varying periods of time at room temperature. The reaction was terminated by the addition of 100 mM EDTA in the same buffer. A solution of about 0.7 ml of 0.25M Tris (about pH 8) containing about 2 mM EDTA and about 7 M GuHC1 is then added followed by about 35 μl of 4 mg/ml of DTNB (Sigma). Samples were incubated for 30 minutes, filtered through a 0.22 micron filter and the optical density measured at about 412 nm to determine sulfhydryl content, Riddles et al., Meth. Enzymol. 9:49-60 (1983). Relative standard deviation of the obtained values during time course experiments is 12%.
# Acidic FGF contains three free cysteine residues at positions […], 83 and 117 in the polypeptide chain. […] It has also been shown that the copper catalyzed oxidative formation of a disulfide bond in the wild-type aFGF inactivates the protein in an in vitro mitogenic assay, Ortega et al., J. Biol. Chem. 266:5842-5846 (1991). Therefore, it was of interest to determine the extent to which heparin can stabilize aFGF against inactivation by oxidation. […] Samples contained 80 μg/ml aFGF with (a) 3X heparin by weight, (b) 0.1X heparin by weight and (c) buffer alone. As heparin was introduced and its concentration increased, the rate of copper-catalyzed oxidation decreased. For example, after 20 minutes, greater than 95% of the cysteine residues of aFGF are protected from oxidation with 3X heparin. FIG. 4B illustrates the fraction of remaining reactive thiol groups after a 10-minute incubation with cupric chloride as a function of heparin concentration.
# Some aggregation of aFGF occurs under the conditions of these experiments presumably due to at least partial intermolecular disulfide formation. Thus, these measurements could simply be a measurement of the loss of solubility induced by copper association with aFGF. Several experiments, however, argue against this possibility. First, previous work has shown that at dilute protein concentration, copper does indeed catalyze oxidation of thiol groups of aFGF, Ortega et al., J. Biol. Chem. 266:5842-5846 (199 1 ). Second, as a control experiment, the copper-catalyzed oxidation of aFGF was carded out in a buffer containing 6 M GuHCl. Under these denaturing conditions, nearly 100% of the thiol groups in solution were lost after 10 minutes without visible aggregation. […] Regardless of the precise mechanism, copper addition is a distinct mechanism of inactivation compared to thermal stress.
# Similar protection against oxidation experiments were carried out with other negatively charged compounds with an excess of ligand (3X by weight except for sodium sulfate at 120 mM and tetrapolyphosphate at 10 mM) added to aFGF before copper catalyzed oxidation. As shown in the second column of Table 2, all of these agents at least partially protect the cysteine residues of aFGF from oxidation.
# ^(b) Percentage of aFGF thiols remaining in solution after 10 min
# incubation with cupric chloride. Experimental conditions are described in
# FIG. 10. All samples contained ligand at 3× (by weight) except
# sodium sulfate (120 mM) and tetrapolyphosphate (10 mM).
# [3] = biological target: T1, aFGF; assay: Copper-catalyzed oxidation of aFGF thiol groups; conditions: 6 M GuHCl, 10 minutes, 1 μM CuCl2, 5 μM aFGF
# [4] = biological target: T1, aFGF; assay: Thermal denaturation (Tm) of aFGF by circular dichroism; conditions: buffer alone
# Procedure: Circular Dichroism (CD) spectra are measured with an AVIV 62 DS spectropolarimeter. Samples of aFGF at about 100 μg/ml in a PBS buffer (6 mM sodium phosphate, 120 mM NaCl, pH 7.2) containing various ligands are placed into 1 mm pathlength cells and the cell temperature is controlled by circulating a water/ethylene glycol mixture through the cell holder. Thermal denaturation is carded out under computer control by increasing the temperature of the water bath in 2° C. increments, followed by a two-minute equilibration period at each temperature to allow the sample to reach thermal equilibrium. Reproducibility of the midpoint of these temperature melting curves (Tm) is ±2° C.
# The maximum Tm values induced by 12 different ligands as determined by circular dichroism measurements at 228 nm are summarized in the first column of Table II. All of these ligands stabilize aFGF by 15°-25° C. in a manner similar to that originally observed with heparin. […] Furthermore, sulfate unions are found near analogous residues in the crystal structure of basic FGF, Eriksson et al., Proc. Natl. Acad. Sd. USA 88:3441-3445 (1991); Zhang et al., Proc. Natl. Acad. Sci. USA 88:3446-3450 (1991). Consequently, it seemed important to examine the ability of these ligands to stabilize aFGF during thermal denaturation as monitored by both fluorescence and circular dichroism. The Tm value of aFGF increased from 27° C. to 43° C. (fluorescence)and 45° C. to 51° C. (CD) when a 100 molar excess (3X by weight) of (IrCl6)^-3 was present. Similarly, sulfate union (120 mM) produced a species that was even more dramatically stabilized, melting at 57° C. (CD).
# ^(a) Thermal melting temperatures were measured by circular dichroism
# Samples contained […] aFGF in PBS buffer pH 7.2 with excess ligand
# (1-3× by weight except for 120 mM sodium sulfate and 10 mM
substance,measurement,setting,value
"aFGF: human acidic fibroblast growth factor, molecular mass of about 15.9 kDa","thermal denaturation temperature (Tm) of aFGF, fluorescence",[1],27 °C
same,"thermal denaturation temperature (Tm) of aFGF, fluorescence",[1]; listed as native aFGF,< 30 °C
same,thiol groups of aFGF lost,"[2]; 6 M GuHCl, 10 minutes",~100%
same,free thiols of aFGF lost,"[2]; 10-minute incubation, absence of polyanions",60%
same,total thiol groups of aFGF reacted,"[2]; buffer alone, after 6 hours, cupric chloride",70-75%
same,thiol groups of aFGF oxidized,"[2]; buffer alone, within several minutes, cupric chloride",50-60%
same,loss of thiol groups of aFGF,[3],10%
same,"Tm of aFGF, circular dichroism",[4],45 °C
